# Measurements reported in a protein production outcome set (Wang et al. 2014).
# Test: label from the status in PepcDB records
row,Sequence,protein production
1,MRGETELKQERSIALPLAISIIAISFAAVFVKMSSAPSSILSMYRLWIIVLLMLPIVWKKREEFSKIQIKDWGFLIGSGFFLALHFLLWFESLKHTTVASSTIILALQPIVSLVGGFFLFKERTTYSAIATMGIAILGVVCIGWGDLGLSEQAIYGDILSFLSVIAVVGYLFIGQTTVKKVSHWIYSFTVFAFAGIFMGIYNIVLQVPFTGYTKWDWTVFLLLAVVPTVSHVINNWLLNYVNATTISMSILGEPVGASILAFFLLGERLNAMQMIGSILVLFGVSVFLLQQQKRTAKNVVNEPVYTQEL,failed
2,MRGGGILDYIGYFLVAIIVIFVVVKLLEWPIKMLVKLIINGVIGAIMLFALNIFGKYIGISIGINIVTALIAGIFGIPGVIFLVILKFIM,failed
3,MRGSVAALLLAAGRSIRMGRCKQLLPLGNTTVLGRCLDTLRRGGVGEIAVVVSADGEQVARAAAGHGVRVVVNPDREGDMASSVRAGRDAFGSAVGGVIVSLCDQPLVAAGTVARLRDRHATEPGRIIIPTHGGRRGHPLLFPLPVLAELEDGLTLRDLVVCDPARVCCVAVADPGILIDMDTPEDYRHVCRLMAPQEGLSLRLEHHHHHH,failed
4,MRGVFLDKDKIPYDLVTKKLNEWYTSIKNDQVEQAEIIKTEVEKELLNMEENQDALLYYQLLEFRHEIMLSYMKSKEIEDLNNAYETIKEIEKQGQLTGMLEYYFYFFKGMYEFRRKELISAISAYRIAESKLSEVEDEIEKAEFFFKVSYVYYYMKQTYFSMNYANRALKIFREYEEYAVQTVRCQFIVAGNLIDSLEYERALEQFLKSLEISKESNIEHLIAMSHMNIGICYDELKEYKKASQHLILALEIFEKSKHSFLTKTLFTLTYVEAKQQNYNVALIYFRKGRFIADKSDDKEYSAKFKILEGLFFSDGETQLIKNAFSYLASRKMFADVENFSIEVADYFHEQGNLMLSNEYYRMSIEARRKIKKGEIIDENQPDSIGSSDFK,failed
5,MRGVSELEVGKSNLPAESELELGLGLSLGGGAWKERGRILTAKDFPSVGSKRSAESSSHQGASPPRSSQVVGWPPIGLHRMNSLVNNQAMKAARAEEGDGEKKVVKNDELKDVSMKVNPKVQGLGFVKVNMDGVGIGRKVDMRAHSSYENLAQTLEEMFFGMTGTTCREKVKPLRLLDGSSDFVLTYEDKEGDWMLVGDVPWRMFINSVKRLRIMGTSEASGLAPRRQEQKDRQRNNPV,failed
6,MRHLGLRNVISKLPAKINAAREFATSALVLIVFFGLLLILGRQFFRDSVVLEPISVPLHLEESGLNGGVAAQWLIDSIRTIQRNAASTKETKAIQATPKQINIEMPGVGFSLATIEQIIREALALPSPFIKGEIIKLGDSYQIRLRLPGAPYIHIEQPLGDKDVEKLIAKSAEKILLLKDPYIVAVDYYRKAEYKKAIEVINNMQPGADRLQSAYNELLLAAIATKQLEHEKASLHLKKADQLAPNLGVVKLNQAIQHALKKDPSTALSKYKEAKQLNLELQDDAFHSQILTELGRELVTDDSAEEKLALFRKAIDLAPENASAIIRLAEVLAHRQRPEENNEMLKLYEAAIGLVPNKPKYHFQYGKTLWEMGNKDKGCVQVKKAVELKPAMRVLANKYQCSK,failed
7,MRHTLPIAPQFYVTAPQSCPYLEGRLERKLFTALQGEHAQKLNDTLSKQGFRRSQNVLYRPSCAECSACLSARIRVADFEPTRTQRRVMKRNADLRRNATSPWATEDQYALFRRYLDDRHADGGMADMDIFEFAAMIEETPIRSRVIEYSRPGDTPSNRPLSAVCLTDIFDDGLSMVYSFYDPDLAGRSLGAYVILDHIEIAREAGLPYVYLGYWVPGSRKMGYKATYSALEIYKGGRWQAIGQPSDHRAELHPLSVDPIAEQVARISLPEARSGDRSRDLEHHHHHH,not failed
8,MRIDIVTIFPACLDPLRQSLPGKAIESGLVDLNVHDLRRWTHDVHHSVDDAPYGGGPGMVMKAPVWGEALDEICSSETLLIVPTPAGVLFTQATAQRWTTESHLVFACGRYEGIDQRVVQDAARRMRVEEVSIGDYVLPGGESAAVVMVEAVLRLLAGVLGNPASHQDDSHSTGLDGLLEGPSYTRPASWRGLDVPEVLLSGDHARIAAWRREVSLQRTRERRPDLSHPD,failed
9,MRIFFLIFLLAYVGGNVYIFIRTLQMLSGFSLAMKILLSVIYWLVAFSLVIAMLTRHIDMPVILSKSMFHIGSVWLVFTLYMIFALLIADVTKIFVPSLNHGFYYALGATCCLLLYGYYNYRHPQVNKIDVSLDKPIEGNGINIVAVSDVHLGYGTGKAMLKEYVDMINAQHPDLILIGGDLIDNSLTPLYKENMAEELAQLKAPLGIYMVPGNHEYISGIDESVRFLKDTPIQLLRDSVVTLPNGVQIIGRDDRSNRSRHSLPTLLKQADRSKPIILLDHQPYNLAKTDSLGIDLQFSGHTHHGQIWPISWVTDRIYEQSHGYRKWSQSHIYVSSGLSLWGPPFRIGTNSDMAVFHLNQMAK,not failed
